Results as given in PMC11643329, “DNA sequence-induced solid phase transition as a solution to the genome folding paradox” (Research Square, 2024).

T1: full length Halo-Ldb1 (Ldb1 1-411) (UniProt P70662 1-411, Halo-tag ligand Coumarin dye on the Halo tag (incubated at 1:10 molar equivalent))
T1 construct: Construct order as printed: 6x His - Halo tag - Ldb1 1-411 - stop codon in pET-duet; The EMSA legend says only 'full-length Ldb1'; This is the only full-length Ldb1 construct that the methods describe; also called full length Ldb1; FL Halo-Ldb1; source: E. coli BL21, purified (HisTrap, dialysis); not shown: Halo tag, N-terminal, kept
T1 sequence (looked up): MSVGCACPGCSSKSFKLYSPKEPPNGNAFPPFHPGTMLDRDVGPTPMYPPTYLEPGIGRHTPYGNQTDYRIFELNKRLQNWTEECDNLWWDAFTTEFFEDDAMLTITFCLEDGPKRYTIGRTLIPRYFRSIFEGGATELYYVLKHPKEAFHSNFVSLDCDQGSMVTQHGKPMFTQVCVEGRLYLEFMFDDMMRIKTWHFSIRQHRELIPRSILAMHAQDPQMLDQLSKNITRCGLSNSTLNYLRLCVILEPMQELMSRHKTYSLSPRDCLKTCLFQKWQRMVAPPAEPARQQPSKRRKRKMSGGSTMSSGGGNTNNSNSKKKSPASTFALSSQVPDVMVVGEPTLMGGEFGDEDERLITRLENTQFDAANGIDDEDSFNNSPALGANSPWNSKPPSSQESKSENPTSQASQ

B1: truncated Sumo-Lhx2 (Lhx2 1-350, lacks the C-terminal intrinsically disordered region) (domain or fragment, UniProt Q9Z0S2 1-350, looked up)
chain: MLFHSLSGPEVHGVIDEMDRRAKSEAPAISSAIDRGDTETTMPSISSDRAALCAGCGGKISDRYYLLAVDKQWHMRCLKCCECKLNLESELTCFSKDGSIYCKEDYYRRFSVQRCARCHLGISASEMVMRARDLVYHLNCFTCTTCNKMLTTGDHFGMKDSLVYCRLHFEALLQGEYPAHFNHADVAAAAAAAAAAKSAGLGSAGANPLGLPYYNGVGTVQKGRPRKRKSPGPGADLAAYNAALSCNENDAEHLDRDQPYPSSQKTKRMRTSFKHHQLRTMKSYFAINHNPDAKDLKQLAQKTGLTKRVLQVWFQNARAKFRRNLLRQENTGVDKTSDATLQTGTPSGPA
notes: Lhx2, LIM-homeodomain transcription factor, residues 1-350 followed by a stop codon; Construct order as printed: 6xHis - Sumo - strep II - Lhx2 in pET28b; also called truncated Lhx2; source: E. coli BL21, purified (HisTrap, HiTrap Heparin, dialysis); not shown: Sumo, N-terminal, kept

Key:
[1] = target: T1, full length Halo-Ldb1 (Ldb1 1-411); assay: native gel or EMSA; purified proteins mixed with 2000 fmol ATTO-488 labelled composite motif DNA probe; Ldb1 added to DNA-bound Lhx2 and/or Ebf1; 10 mM HEPES, 150 mM NaCl, 5% glycerol, 0.5% NP-40, 1 mg/mL BSA, 0.1 mg/mL poly dI-dC; 30 minutes at 4C; 6% native gel; settings: both partners purified
[2] = target: B1; assay: as above; settings: both partners purified

| Binder | binding result [1] | binding result [2] |
| --- | --- | --- |
| B1 | binds |  |
| Ldb1 Lim interaction domain (Ldb1-LID), Sumo-Ldb1 320-375 (domain or fragment, UniProt P70662 320-375, looked up, Construct order as printed: 6x His - Sumo - Ldb1 320-375 - stop codon in pET28; also called truncated Ldb1 protein; Sumo-Ldb1-LID domain; source: E. coli BL21, purified (HisTrap, Superdex 75 size exclusion); not shown: Sumo, N-terminal, kept) KKKSPASTFALSSQVPDVMVVGEPTLMGGEFGDEDERLITRLENTQFDAANGIDDE |  | binds |
